Numbering of substitutions follows the chain as printed. Names may count otherwise. “And” between values parts separate entries of the source, which are not always exact repeats. Equal entries are not always repeated. Blank lines part the entries; values can stand above or below the binder they belong to.
Tests used:
His-tagged CEACAM1 [1] = molecular target: T1, His-tagged CEACAM1 (human, UniProt P13688 35-428); assay: SPR single-cycle, IgG captured
T1 construct: 45 kDa SPR analyte; also called CEACAM1-HIS; CEACAM1 analyte
T1 sequence: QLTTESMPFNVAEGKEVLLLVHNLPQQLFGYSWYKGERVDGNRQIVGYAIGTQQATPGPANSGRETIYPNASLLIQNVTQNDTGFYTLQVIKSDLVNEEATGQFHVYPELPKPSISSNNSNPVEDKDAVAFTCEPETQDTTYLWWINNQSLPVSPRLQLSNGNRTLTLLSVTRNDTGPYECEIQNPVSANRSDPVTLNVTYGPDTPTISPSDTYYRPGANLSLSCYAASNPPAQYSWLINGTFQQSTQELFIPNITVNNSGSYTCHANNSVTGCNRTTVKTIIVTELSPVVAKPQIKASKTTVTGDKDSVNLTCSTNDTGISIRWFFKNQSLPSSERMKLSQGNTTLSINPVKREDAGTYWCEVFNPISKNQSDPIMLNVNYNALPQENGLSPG
Protocol: (§1) As an alternative approach to assess the binding of the 36 antibody combinations and the three control antibodies to CEACAM1, a kinetic analysis was performed on a Biacore T200 (serial no. 1909913) running Biacore T200 Evaluation Software V2.0.1 (Uppsala, Sweden). All experiments were run at 25° C. with HBS-P+ running buffer (pH 7.4) (GE Healthcare, cat. no. BR100671). All kinetic experiments were performed using His-tagged CEACAM1 as the analyte. For all experiments, antibodies were immobilized onto a Series S Protein A sensor chip surface. For kinetic experiments, the amount of immobilized/captured ligand was limited to avoid mass transfer effects at the surface of the chip with the surface ideally having an analyte binding level (Rₘₐₓ) of 50-150 RUs. Using a MW of 45 kDa for the CEACAM1 analyte, 150 kDa for the antibody ligand (estimated value for IgG), 50 RU for Rmax and the stoichiometry (Sm) as 2 due to the ability of each antibody to bind 2 target molecules, a target response level of ˜75 RUs was set for capture of all the sample antibodies.
Single cycle analysis of the 36 antibody combinations and the three control antibodies was performed on purified antibodies (Vκ1 to Vκ6 variants) or on the supernatants of the transiently transfected HEK EBNA cells (Vκ7 to Vκ12 variants). In some instances, where supernatant was not available, purified chimeric antibody VH0/Vκ0 was spiked into HEK EBNA culture medium to use as a positive control. Antibodies were diluted in HBS-P+ to a concentration of 1 μg/ml (as determined by an IgG quantitation ELISA). At the start of each cycle, antibodies were loaded onto Fc2, Fc3 and Fc4 of a protein A chip and IgG captured at a flow rate of 8 μl/min to give an RU of ˜75. The surface was then allowed to stabilize. Single cycle kinetic data was obtained at a flow rate of 50 μl/min to minimize any potential mass transfer effects. Multiple repeats of the chimeric antibody VH0/Vκ0 were performed to check the stability of the surface and analyte over the kinetic cycles. The signal from the reference channel Fc1 (no antibody) was subtracted from that of Fc2, Fc3 and Fc4 to correct for differences in non-specific binding to a reference surface. A 5 point 2-fold dilution range from 3.125 to 50 nM CEACAM1 without regeneration between each concentration was used.

[2] = molecular target: T2, CEACAM6 on transfected HeLa cells (human, UniProt P40199 35-320); assay: flow cytometry, HeLa-CEACAM6 transfectants, % positive cells
T2 construct: whole, on cells; also called HeLa-CEACAM6; HeLa C6
T2 sequence (looked up): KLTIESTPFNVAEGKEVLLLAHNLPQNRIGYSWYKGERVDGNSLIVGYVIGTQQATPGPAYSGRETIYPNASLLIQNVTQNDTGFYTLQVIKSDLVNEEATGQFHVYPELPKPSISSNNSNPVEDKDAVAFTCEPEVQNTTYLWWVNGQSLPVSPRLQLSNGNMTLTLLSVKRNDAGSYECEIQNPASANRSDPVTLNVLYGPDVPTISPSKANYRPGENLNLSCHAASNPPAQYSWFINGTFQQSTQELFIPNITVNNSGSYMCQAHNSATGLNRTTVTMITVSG
Protocol: Binding selectivity for CEACAM1 was tested for the 24 humanized antibody variants that bound to CEACAM1 (see Table 3), as well as the chimeric control antibody VH0/Vκ0, by flow cytometry on HeLa cells transfected with CEACAM1, 3, 5, 6 and 8. […] There was no evidence of any staining of the HeLa-CEACAM3 or HeLa-CEACAM8 transfectants. […] Due to its favorable affinity to and selectivity for CEACAM1 as well as its favorable expression level, VH1/Vκ8 was chosen as the framework for affinity maturation.

[3] = molecular target: T3, CEACAM8 on transfected HeLa cells (human, UniProt P31997 35-320); assay: flow cytometry, transfected HeLa
T3 construct: whole, on cells; also called HeLa-CEACAM8; HeLa C8
T3 sequence (looked up): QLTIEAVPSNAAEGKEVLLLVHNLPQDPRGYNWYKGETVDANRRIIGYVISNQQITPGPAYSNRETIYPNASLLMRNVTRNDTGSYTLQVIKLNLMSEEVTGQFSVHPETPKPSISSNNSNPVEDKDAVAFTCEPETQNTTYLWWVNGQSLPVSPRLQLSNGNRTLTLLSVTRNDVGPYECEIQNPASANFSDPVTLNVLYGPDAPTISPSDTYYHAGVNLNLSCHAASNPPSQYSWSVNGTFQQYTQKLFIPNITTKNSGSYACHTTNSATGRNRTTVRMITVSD
Method in brief: (§2)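 HeLa cells stably transfected with single CEACAM family members were grown in DMEM with 10% fetal bovine serum at 37° C and 5.0% CO₂. After staining with the test antibody and then a fluorochrome-conjugated isotype-specific secondary antibody, with DAPI as the viability dye, the cells were run on a Cytoflex and the data analysed in FlowJo. Binding selectivity is reported as the staining of each transfectant.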

[4] = molecular target: T4, CEACAM3 on transfected HeLa cells (human, UniProt P40198 35-252); assay: flow cytometry, transfected HeLa
T4 construct: whole, on cells; also called HeLa-CEACAM3; HeLa C3
T4 sequence (looked up): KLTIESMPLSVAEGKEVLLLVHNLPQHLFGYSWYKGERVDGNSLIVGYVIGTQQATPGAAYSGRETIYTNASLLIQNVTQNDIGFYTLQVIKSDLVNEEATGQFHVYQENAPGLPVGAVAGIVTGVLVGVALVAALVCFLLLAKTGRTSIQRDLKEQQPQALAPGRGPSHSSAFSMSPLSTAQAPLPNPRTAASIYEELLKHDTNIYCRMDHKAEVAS
Method in brief: as §2

His-tagged CEACAM1 [5] = molecular target: T1, His-tagged CEACAM1; assay: SPR multi-cycle, IgG captured
Protocol: as §1
The signal from the reference channel Fc1 was subtracted from that of Fc2, Fc3 and Fc4 to correct for differences in non-specific binding to a reference surface, a global Rmax parameter was used in the 1-to-1 binding model. The relative Kp compared to […] was calculated by dividing the Kp of the humanized CEACAM antibody variants by that of the chimeric antibody VH0/Vκ0 on the same chip. A summary of the averaged relative Kp obtained for the 12 antibody combinations analyzed using multi cycle kinetics can be found in Table 5.

B2: VH1/Vκ7 (antibody, IgG4, V domains shown)
VH: EVQLLESGGGLVQPGGSLRLSCAASGFIFSSHGMSWVRQAPGKGLEWVATISSGGTYTYYPDSVKGRFTISRDNSKNTLYLQMNSLKAEDTAMYYCARHDFDYDAAWFAYWGQGTLVTVSS
VL: EIVLTQSPATLSLSPGERATLSCRANSSVSYMYWYQQKPGQAPRPWIYLTSNRATGVPARFSGSGSGTDFTLTISSLEPEDFATYYCQQWSSNPPTFGQGTKLEIK
notes: IgG4 (S241P), kappa
Kd (His-tagged CEACAM1 [1]): 109 nM
relative KD to VH0/Vκ0 (His-tagged CEACAM1 [1]): 2.6
binding result [2]: no binding
binding result [3]: no binding
binding result [4]: no binding
Kd (His-tagged CEACAM1 [5]): 119 nM and 69 nM
average relative KD to VH0/Vκ0 (His-tagged CEACAM1 [5]): 2
koff (His-tagged CEACAM1 [5]): 0.0492 s⁻¹ and 0.0352 s⁻¹
kon (His-tagged CEACAM1 [5]): 415000 M⁻¹ s⁻¹ and 510000 M⁻¹ s⁻¹

B4: VH1/Vκ8 (antibody, IgG4, V domains shown)
VH: B2 VH
VL: B2 VL with F70Y, T84V
notes: IgG4 (S241P), kappa
Kd (His-tagged CEACAM1 [1]): 131 nM
relative KD to VH0/Vκ0 (His-tagged CEACAM1 [1]): 3.2
binding result [2]: no binding
binding result [3]: no binding
binding result [4]: no binding
Kd (His-tagged CEACAM1 [5]): 95 nM
average relative KD to VH0/Vκ0 (His-tagged CEACAM1 [5]): 1.8
koff (His-tagged CEACAM1 [5]): 0.0406 s⁻¹
kon (His-tagged CEACAM1 [5]): 430000 M⁻¹ s⁻¹
relative KD to VH0/Vκ0 (His-tagged CEACAM1 [5]): 1.8

B5: VH2/Vκ7 (antibody, IgG4, V domains shown)
VH: B2 VH with K87R
VL: B2 VL
notes: IgG4 (S241P), kappa
Kd (His-tagged CEACAM1 [1]): 152 nM
relative KD to VH0/Vκ0 (His-tagged CEACAM1 [1]): 3.7
binding result [2]: no binding
binding result [3]: no binding
binding result [4]: no binding
Kd (His-tagged CEACAM1 [5]): 71 nM
average relative KD to VH0/Vκ0 (His-tagged CEACAM1 [5]): 2.3
koff (His-tagged CEACAM1 [5]): 0.0258 s⁻¹
kon (His-tagged CEACAM1 [5]): 362000 M⁻¹ s⁻¹
relative KD to VH0/Vκ0 (His-tagged CEACAM1 [5]): 2.4

Continued, values first:

Kd (His-tagged CEACAM1 [1]): 125 nM
relative KD to VH0/Vκ0 (His-tagged CEACAM1 [1]): 3
binding result [2]: no binding
binding result [3]: no binding
binding result [4]: no binding
Kd (His-tagged CEACAM1 [5]): 125 nM
average relative KD to VH0/Vκ0 (His-tagged CEACAM1 [5]): 2.3
koff (His-tagged CEACAM1 [5]): 0.0417 s⁻¹
kon (His-tagged CEACAM1 [5]): 334000 M⁻¹ s⁻¹
relative KD to VH0/Vκ0 (His-tagged CEACAM1 [5]): 2.3
B1: VH2/Vκ8 (antibody, IgG4, V domains shown)
VH: B2 VH with K87R
VL: B2 VL with F70Y, T84V
notes: IgG4 (S241P), kappa

Kd (His-tagged CEACAM1 [1]): 143 nM
relative KD to VH0/Vκ0 (His-tagged CEACAM1 [1]): 3.5
binding result [2]: no binding
binding result [3]: no binding
binding result [4]: no binding
Kd (His-tagged CEACAM1 [5]): 65 nM
average relative KD to VH0/Vκ0 (His-tagged CEACAM1 [5]): 2.2
koff (His-tagged CEACAM1 [5]): 0.0268 s⁻¹
kon (His-tagged CEACAM1 [5]): 411000 M⁻¹ s⁻¹
relative KD to VH0/Vκ0 (His-tagged CEACAM1 [5]): 2.2
B3: VH1/Vκ12 (antibody, IgG4, V domains shown)
VH: B2 VH
VL: B2 VL with W46L, V57I, F70Y
notes: IgG4 (S241P), kappa

Kd (His-tagged CEACAM1 [1]): 146 nM
relative KD to VH0/Vκ0 (His-tagged CEACAM1 [1]): 3.5
binding result [2]: no binding
binding result [3]: no binding
binding result [4]: no binding
Kd (His-tagged CEACAM1 [5]): 180 nM
average relative KD to VH0/Vκ0 (His-tagged CEACAM1 [5]): 3.2
koff (His-tagged CEACAM1 [5]): 0.0511 s⁻¹
kon (His-tagged CEACAM1 [5]): 284000 M⁻¹ s⁻¹
relative KD to VH0/Vκ0 (His-tagged CEACAM1 [5]): 3.2
B6: VH1/Vκ10 (antibody, IgG4, V domains shown)
VH: B2 VH
VL: B2 VL with V57I
notes: IgG4 (S241P), kappa

Source: patent US20250074980A1 (BRIGHAM AND WOMEN S HOSPITAL, published 2025)
